Positions count from the first letter of the chain named. Values belong to the binder of their own block, whether it stands above or below them.
Legend:
[1] = biological target: T1, human PD-1 on PD-1 Effector Cell Line (Genscript, GS-J2/PD-1) (human, UniProt Q15116 25-288); assay: cell-based or functional assay
[2] = biological target: T2, recombinant human PD-1-his (Sino biological, #10377-H08H) (human, UniProt Q15116 25-167); assay: SPR (Biacore T200), antibody captured, antigen flowed
T2 construct: Bought protein; also called Human PD-1-his protein; not shown: his tag
Excerpt: (§1) Briefly, goat […] (GE healthcare, Cat #BR100839, Human Antibody Capture Kit) was covalently linked to a CM5 chip (carboxy methyl dextran coated chip) via primary amines, using a standard amine coupling kit (GE healthcare, Pittsburgh, PA, USA) provided by Biacore. Unreacted moieties on the biosensor surface were blocked with ethanolamine. […] Then, recombinant human PD-1-his (Sino biological, #10377-H08H) or cynomolgus monkey PD-1-his protein (Acro biosystems, #PD-1-C5223) in HBS EP buffer (provided by Biacore) was flowed onto the chip at a flow rate of 30 μL/min. The antigen-antibody association kinetics was followed for 2 minutes and the dissociation kinetics was followed for 10 minutes. The association and dissociation curves were fit to a 1:1 *Langmuir* binding model using BIA evaluation software.

[3] = biological target: T3, cynomolgus monkey PD-1-his protein (Acro biosystems, #PD-1-C5223) (cynomolgus monkey, UniProt B0LAJ3 25-170); assay: as above
T3 construct: Bought protein; also called Cynomolgus PD-1; Cynomolgus PD1
Excerpt: as §1

[4] = biological target: T4, biotin-labeled human PD-1 Fc protein (human, biotin-labeled (sites not given)); assay: competition ELISA: blocks biotin PD-1-Fc binding to coated PD-L1-Fc
T4 construct: also called PD-1-Fc-biotin
Description: (§2) The next day, plates were washed with wash buffer (PBS+0.05% Tween-20, PBST), and blocked with 5% non-fatty milk in PBST for 2 hours at 37° C. Plates were then washed again using wash buffer.
(§3) After incubation at 37° C. for 40 minutes, plates were washed for 4 times using wash buffer. […] Plates were washed again using wash buffer. Finally, TMB was added and the reaction was stopped using 1M H_2SO_4, and the absorbance was read at 450 nm. Data were analyzed using Graphpad Prism software and $IC50$ values were reported.

[5] = biological target: T4, biotin-labeled human PD-1 Fc protein; assay: capture ELISA: antibody captured by anti-IgG Fc, biotin PD-1-Fc 60 nM
[6] = biological target: T4, biotin-labeled human PD-1 Fc protein; assay: competition ELISA: blocks biotin PD-1-Fc binding to coated Nivolumab (competitor); partial blocking
Description: (§4) The next day, plates were washed with wash buffer, and blocked with 5% non-fatty milk in PBST for 2 hours at 37° C. […] Plates were finally washed using wash buffer. TMB was added and the reaction was stopped using 1M H_2SO_4, and the absorbance was read at 450 nm. Data were analyzed using Graphpad Prism software and $IC50$ values were reported.

[7] = biological target: T2, recombinant human PD-1-his (Sino …); assay: SPR (Biacore) as in Example 2
[8] = biological target: T2, recombinant human PD-1-his (Sino …); assay: SPR (Biacore)
[9] = biological target: T3, cynomolgus monkey PD-1-his protein …; assay: SPR (Biacore)
[10] = biological target: T1, human PD-1 on PD-1 Effector Cell Line …; assay: cell-based or functional assay; remark: listed apart in the source
[11] = biological target: T4, biotin-labeled human PD-1 Fc protein; assay: binding capture ELISA, biotin PD-1-Fc
[12] = biological target: T4, biotin-labeled human PD-1 Fc protein; assay: PD1/PDL1 ligand blocking ELISA (coated PD-L1-Fc)
[13] = biological target: T4, biotin-labeled human PD-1 Fc protein; assay: benchmark blocking ELISA (coated Nivolumab as competitor)
Description: as §4

[14] = biological target: T4, biotin-labeled human PD-1 Fc protein; assay: binding capture ELISA (goat anti-human IgG Fab capture), biotin PD-1-Fc
[15] = biological target: T4, biotin-labeled human PD-1 Fc protein; assay: capture binding ELISA, biotin PD-1-Fc
[16] = biological target: T4, biotin-labeled human PD-1 Fc protein; assay: PD1/PDL1 ligand blocking ELISA (coated PD-L1-Fc); remark: listed apart in the source
Description: as §2, §3

[17] = biological target: T4, biotin-labeled human PD-1 Fc protein; assay: benchmark blocking ELISA (coated Nivolumab, self-competition)
[18] = biological target: T4, biotin-labeled human PD-1 Fc protein; assay: as above; remark: listed apart in the source
[19] = biological target: T4, biotin-labeled human PD-1 Fc protein; assay: competition ELISA: blocks biotin PD-1-Fc binding to coated Nivolumab (self-competition)

B2: humanized anti-PD-1 antibody huC1E1-V1 (antibody, human IgG1, kappa)
heavy: not shown
light: EIVLTQSPATLSLSPGERATLSCRASKSVDDSGISFMHWFQQKPGQPPRLLIYAASNQGSGVPARFSGSGSGTDFTLTISSLEPEDFAVYFCHQTKEVPWTFGQGTKVEIKRTVAAPSVFIFPPSDEQLKSGTASVVCLLNNFYPREAKVQWKVDNALQSGNSQESVTEQDSKDSTYSLSSTLTLSKADYEKHKVYACEVTHQGLSSPVTKSFNRGEC
notes: Human IgG1/kappa, expressed in 293F cells
Kd [7]: 3.88 nM

B3: humanized anti-PD-1 antibody huC1E1-V4 (antibody, human IgG1, kappa, V domains shown)
VH: EVQLVESGGGVVQPGRSLRLSCAASGFTFSSYLMSWVRQAPGKGLEWVATISGGGGDTYFPDSVKGRFTISRDNSKNTLYLQMNSLRAEDTAVYYCVRFGGAGYYWYFDVWGAGTLVTVSS
VL: EIVLTQSPATLSLSPGERATLSCRASKSVDDSGISFMHWFQQKPGQAPRLLIYAASNQGSGVPARFSGSGSGTDFTLTISSLEPEDFAVYFCHQTKEVPWTFGQGTKVEIKR
notes: as for B2
Kd [7]: 2.95 nM

B4: humanized anti-PD-1 antibody huC1E1-V3 (antibody, human IgG1, kappa, V domains shown)
VH: B3 VH
VL: B3 VL with F40Y, A47P
notes: as for B2
Kd [7]: 4.52 nM

B5: humanized anti-PD-1 antibody huC1E1-V2 (antibody, human IgG1, kappa)
heavy: not shown
light: B2 light
notes: as for B2
Kd [7]: 2.49 nM

B8: humanized anti-PD-1 antibody huC1E1-V5 (antibody, human IgG1, kappa, V domains shown)
VH: B3 VH
VL: B3 VL with A47P, V62I
notes: as for B2
Kd [7]: 3.37 nM

B10: Nivolumab (OPDIVO®) (antibody, V domains shown)
VH: QVQLVESGGGVVQPGRSLRLDCKASGITFSNSGMHWVRQAPGKGLEWVAVIWYDGSKRYYADSVKGRFTISRDNSKNTLFLQMNSLRAEDTAVYYCATNDDYWGQGTLVTVSS
VL: EIVLTQSPATLSLSPGERATLSCRASQSVSSYLAWYQQKPGQAPRLLIYDASNRATGIPARFSGSGSGTDFTLTISSLEPEDFAVYYCQQSSNWPRTFGQGTKVEIK
EC50 [15]: 0.37 nM | EC50 [11]: 0.37 nM | IC50 [16]: 0.41 nM | IC50 [12]: 0.41 nM | IC50 [17]: 0.38 nM | IC50 [18]: 0.38 nM | EC50 [5]: 0.21 nM | IC50 [19]: 3.79 nM

The next lines start with the values.

Reporter Activation (EC50, nM) human PD-1 cell (NFAT-luc)/human PD-L1 cell [1]: 17.9 nM | Kd [2]: 2.68 nM | koff [2]: 0.000436 s⁻¹ | kon [2]: 163000 M⁻¹ s⁻¹ | Kd [3]: 13 nM | koff [3]: 0.00183 s⁻¹ | kon [3]: 140000 M⁻¹ s⁻¹ | IC50 [4]: 0.32 nM | EC50 [5]: 0.18 nM | IC50 [6]: 14.4 nM
B1: mouse anti-PD-1 monoclonal antibody 2G2 (antibody, mouse IgG1, kappa, V domains shown)
VH: EVQLVESGGDLVKPGGSLKLSCTASGFTFSYYGMSWVRQTPDKRLEWVATISSGSSFTYSPDSVKGRFTISRDNAKNTLYLQMNSLKSEDTAIYYCTRREGIYDASWDYSMDYWGQGTSVTVSS
VL: DVLMTQTPLSLPVSLGDQASISCRSSQSIIRSNGNTYLEWYLQKPGQSPKLLIYKVSNRFSGVPDRFSGSGSGTDFTLKISRVEADDLGLYYCFQGSHVPWTFGGGTKLEIKR
notes: Purified from hybridoma; Constant regions tied only generically to 'mouse antibodies'; also called Clone 2G2

Kd [7]: 6.36 nM
B6: humanized anti-PD-1 antibody huC1E1-V7 (antibody, human IgG1, kappa)
heavy: not shown
light: B2 light with F40Y, P47A, V62I, F91Y
notes: as for B2

Kd [7]: 3.05 nM
B7: humanized anti-PD-1 antibody huC1E1-V6 (antibody, human IgG1, kappa, V domains shown)
VH: B3 VH
VL: B3 VL with A47P, F91Y
notes: as for B2

Kd [8]: 0.968 nM | Kd [9]: 0.892 nM | Cell-based reporter assay (EC50, nM) [10]: 11.3 nM | Kd [7]: 0.968 nM | EC50 [11]: 0.34 nM | IC50 [12]: 0.88 nM | IC50 [13]: 0.35 nM | EC50 [14]: 0.44 nM
B9: humanized anti-PD-1 antibody huC1E1-V10 (antibody, human IgG1, kappa)
heavy: not shown
light: B2 light with F40Y, P47A, V62I, F91Y
notes: as for B2
